These results are taken from paper PMC10801496, “A Novel Anti-CD47 Nanobody Tetramer for Cancer Therapy” (Antibodies, 2024).

B1: 47VHH1D9 (VHH)
VHH: RVQAGGSLRLSCKVSGNNFRRVNMGWYRQAPGKQRDLVAWISNDGGTYYDRSLKGRFTISRDNTKNTMFLQMDSLKPEDTAVYYCNSRPSSIFGSWGQGTQVTVSS
notes: alpaca VHH; Cloned into pET32b+; about 17 kDa on SDS-PAGE; source: E. coli BL21DE3, purified (Ni-NTA, gel-filtration)
B2: 47VHH2B10 (VHH)
VHH: QVQLVESGGGLVQPGGSLRLSCEASGFNLGYYGICWFRRAAGKEREGVACSATPDDSTYYADSVKGRFTISKDKAKNMIFLQMNDLKPEDTAVYYCVTDRKPKYGKQWLEFSEYDYWGQGTQVIVSS
notes: as for B1
B3: 47VHH1A12 (VHH)
VHH: QLQLVESGGGLVQAGGSLRLSCVVSGGTFSALTMGWFRDVPGKEREFVSAISFDTRTTYYSDSVKGRFAISRDNGLNTVYLDMNSLRPEDTAVYVCAADAQIGWVNRRAYDYDYWGQGTQVTVSS
notes: as for B1
B4: 47VHH1H4 (VHH)
VHH: QVQLVESGGGLVQAGGSLRLSCKVSGNNFRRVNMGWYRQAPGKQRDLVAWISNDGGTYYDRSLKGRFTISRDNTKNTMFLQMDSLKPEDTAVYYCNSRPSSIFGSWGQGTQVTVSS
notes: alpaca VHH; Cloned into pET32b+; about 17 kDa on SDS-PAGE; also called native 47VHH1H4; source: E. coli BL21DE3, purified (Ni-NTA, gel-filtration)
B5: 47VHH1H4B (VHH)
VHH: QVQLVESGGGLVQAGGSLRLSCKVSGNNFRRVNMGWYRQAPGKQRDLVAWISNDGGTYYDRSLKGRFTISRDNTKNTMFLQMDSLKPEDTAVYYCNSRPSSIFGSWGQGTQVTVSS
notes: as the VHH of m3 (47VHH1H4); IgA hinge linker; biotin acceptor domain BAD; About 25 kDa on SDS-PAGE; also called biotinylated 47VHH1H4; biotinylated 47VHH1H4 fragment; source: E. coli BL21DE3 carrying BirA, 0.3 mM biotin, purified (Ni-NTA, UNO S1 cation exchange)
B6: 47VHH1C17 (VHH)
VHH: QVQLVESGGGLVQAGGSLRLSCAASGHTFSSYDMGWFRQAPGKEREFVAHINWSGSTYYADSVKGRFTISGGNAKNAVYLQMNSLKPEDTAVYYCGAKYAISRTWDYWGQGTQVTVSS
notes: as for B1

For orientation: Kd means the constant that tells how readily two partners part at equilibrium.

The target in this assay is T1, human CD47 with His tag (Homo sapiens, UniProt Q08722).
T1 construct: CD47, human; The alpaca was immunised with an extracellular fragment of CD47; also called recombinant CD47; source: gift from P.M. Chumakov
T1 sequence (Q08722 19-323): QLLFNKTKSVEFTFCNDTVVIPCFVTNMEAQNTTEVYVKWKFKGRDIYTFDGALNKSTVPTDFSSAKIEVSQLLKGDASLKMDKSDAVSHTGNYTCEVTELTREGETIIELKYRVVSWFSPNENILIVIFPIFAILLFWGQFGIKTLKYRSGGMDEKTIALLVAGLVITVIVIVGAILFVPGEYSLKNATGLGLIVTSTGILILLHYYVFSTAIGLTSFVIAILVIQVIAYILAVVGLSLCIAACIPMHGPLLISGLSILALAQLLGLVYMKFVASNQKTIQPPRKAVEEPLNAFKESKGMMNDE
Put plainly: SPR; recombinant CD47 anchored to a CM5 chip, nanobodies as analyte, Biacore T200. The settings on record: both partners purified. (In SPR one partner is held on a chip, and binding of the other changes the refractive index at the surface.)
In the case of B1, the Kd amounted to 400 nM. The value for B2 was ~30000 nM.

Take B3: the Kd is ~30000 nM. The value for B4 was 30 nM; that for B5 was 3 nM. The figure for B6 is 2000 nM.
